One molecule from article PMC4961739, “Regulation of post-Golgi LH3 trafficking is essential for collagen homeostasis” (Nature Communications, 2016) can be followed below.

The test has as its target T1, His6-cMyc4-tagged VPS33B (human, UniProt Q9H267 1-617).
T1 construct: VPS33B, human, UniProt Q9H267; construct pUPE.02.13-VPS33B; also called pUPE.02.13-VPS33B; recombinant tagged VPS33B; source: HEK293 cells stably expressing Epstein-Barr virus Nuclear Antigen I, co-transfected with VIPAR; in lysate, then co-purified with VIPAR (Streptactin Sepharose, Superdex 200); not shown: His6-cMyc4, N-terminal, kept
T1 sequence (looked up): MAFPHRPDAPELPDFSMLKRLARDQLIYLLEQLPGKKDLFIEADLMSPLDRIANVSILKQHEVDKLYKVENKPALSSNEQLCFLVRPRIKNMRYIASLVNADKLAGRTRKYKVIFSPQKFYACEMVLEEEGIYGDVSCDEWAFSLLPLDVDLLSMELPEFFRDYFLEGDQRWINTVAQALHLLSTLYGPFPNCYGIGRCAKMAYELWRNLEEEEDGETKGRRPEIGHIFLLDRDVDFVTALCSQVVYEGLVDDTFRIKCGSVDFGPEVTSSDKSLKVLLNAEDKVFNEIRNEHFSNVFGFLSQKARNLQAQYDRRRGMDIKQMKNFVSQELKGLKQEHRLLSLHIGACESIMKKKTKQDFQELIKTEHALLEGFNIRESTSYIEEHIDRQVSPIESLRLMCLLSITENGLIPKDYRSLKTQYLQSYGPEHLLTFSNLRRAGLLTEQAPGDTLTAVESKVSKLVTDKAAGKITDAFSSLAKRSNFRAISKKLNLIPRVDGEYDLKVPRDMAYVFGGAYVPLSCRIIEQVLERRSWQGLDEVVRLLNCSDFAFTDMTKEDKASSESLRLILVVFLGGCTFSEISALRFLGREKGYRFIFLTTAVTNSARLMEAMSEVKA
The test is described as follows: affinity purification with mass spectrometry; His6-StrepII3-VIPAR and His6-cMyc4-VPS33B coexpressed in HEK293 cells; soluble lysate (0.3% NP-40, NaCl to 300 mM) on Streptactin Sepharose, eluted with 2.5 mM desthiobiotin, Superdex 200; purified sample analysed by LC-MS/MS. The conditions noted are these: partners not purified.

B1: His6-StrepII3-tagged VIPAR (natural protein, human, UniProt Q9H9C1 1-493, looked up)
chain: MNRTKGDEEEYWNSSKFKAFTFDDEDDELSQLKESKRAVNSLRDFVDDDDDDDLERVSWSGEPVGSISWSIRETAGNSGSTHEGREQLKSRNSFSSYAQLPKPTSTYSLSSFFRGRTRPGSFQSLSDALSDTPAKSYAPELGRPKGEYRDYSNDWSPSDTVRRLRKGKVCSLERFRSLQDKLQLLEEAVSMHDGNVITAVLIFLKRTLSKEILFRELEVRQVALRHLIHFLKEIGDQKLLLDLFRFLDRTEELALSHYREHLNIQDPDKRKEFLKTCVGLPFSAEDSAHIQDHYTLLERQIIIEANDRHLESAGQTEIFRKHPRKASILNMPLVTTLFYSCFYHYTEAEGTFSSPVNLKKTFKIPDKQYVLTALAARAKLRAWNDVDALFTTKNWLGYTKKRAPIGFHRVVEILHKNNAPVQILQEYVNLVEDVDTKLNLATKFKCHDVVIDTYRDLKDRQQLLAYRSKVDKGSAEEEKIDALLSSSQIRWKN
notes: VIPAR (VIPAS39), human, UniProt Q9H9C1; construct pUPE.02.09-VIPAR; also called pUPE.02.09-VIPAR; recombinant tagged VIPAR; source: HEK293 cells stably expressing Epstein-Barr virus Nuclear Antigen I, co-transfected with VPS33B; in lysate, then purified (Streptactin Sepharose, Superdex 200); not shown: His6-StrepII3, N-terminal, kept
As to B1, the binding result is listed as “binds”.
